From US11814435B2, “Therapeutic antibodies and their uses” (PFIZER INC., priority 2015, dated 2023)
Values belong to the molecule of their own block, whether it stands above or below them.

What was measured:
cyCD3ed = cyCD3ed (Macaca fascicularis, UniProt Q95LI5); assay: Kinetics and affinity of cyCD3ed/human IgG interactions by SPR (Bio-Rad Proteon XPR36); type: binding, cynomolgus
hCD3 (human CD3) = hCD3 (human CD3) (Homo sapiens, UniProt P07766); assay: Kinetics and affinity of hCD3/human IgG interactions by SPR (Bio-Rad Proteon XPR36); type: binding
Method: All experiments were performed on a Bio-Rad Proteon XPR36 surface Plasmon resonance biosensor (Bio-Rad, Hercules, Calif.). An array of anti-CD3 antibodies was prepared using an amine-coupling method on a Bio-Rad GLC Sensor Chip similar to that described in Abdiche, et al., Anal. Biochem. 411, 139-151 (2011). The analysis temperature for the immobilization was 25° C. and the running buffer was HBS-T+(10 mM HEPES, 150 mM NaCl, 0.05% Tween-20, pH 7.4). Channels were activated in the analyte (horizontal) direction by injecting a mixture of 1 mM ECD and 0.25 mM NHS for 3 minutes at a flow rate of 30 μL/min. IgGs were immobilized on the activated spots by injecting them in the ligand (vertical) direction at 20 μg/mL in 10 mM Acetate pH 4.5 buffer for 1.5 minutes at […]. The activated surfaces were blocked by injecting 1M ethanolamine, pH 8.5 in the analyte direction for 3 minutes at 30 μL/min.
The analysis temperature for the hCD3 binding analysis was 37° C. or 25° C. in a running buffer of HBS-T+, supplemented with 1 mg/mL BSA. A kinetic titration method was employed for the interaction analysis as described in Abdiche, et al. The hCD3 (human CD3) analyte was injected in the analyte direction using a series of injections from low to high concentration. The concentrations used were 0.08 nM, 0.4 nM, 2 nM, 10 nM and 50 nM (a 5-membered series, with a 5-fold dilution factor and top concentration of 50 nM). The association time for a given analyte dilution was two minutes. Immediately after the 50 nM hCD3 injection, dissociation was monitored for 2 hours. Prior to the hCD3 analyte injections, buffer was injected 5 times using the same association and dissociation times at the hCD3 analyte cycles to prepare a buffer blank sensorgram for double-referencing purposes (double referencing as described in Myszka, J. Mol. Recognit. 12, 279-284 (1999).
The sensorgrams were double-referenced and fit to a 1:1 Langmuir with mass transport kinetic titration model in BIAevaluation Software version 4.1.1 (GE Lifesciences, Piscataway, N.J.).

[1] = tested on: primary myeloma cells from myeloma patients; assay: T cell mediated killing of primary myeloma patient samples by anti-BCMA/CD3 bispecific (flow cytometry live cell count); type: cell-based, human; conditions: Patient MM00146; anti-BCMA_h2B4 bispecific; five days after treatment
Method: Human anti-BCMA (P5A2, A02_Rd4_0.6 nM_C01, A02_Rd4_6 nM_C16, Combo_Rd4_0.6 nM_C29, and P6E01 L3PY/H3TAQ) and human anti-CD3 (h2B4) antibodies were expressed as human IgG2dA engineered with EEEE or RRRR for bispecific exchange as describe in Example 8.
Cells were treated with 10-fold serially diluted bispecific antibody. […] EC50 was calculated by Prism software.

hCD3 (human CD3), sequence (P07766 23-126 limits assumed): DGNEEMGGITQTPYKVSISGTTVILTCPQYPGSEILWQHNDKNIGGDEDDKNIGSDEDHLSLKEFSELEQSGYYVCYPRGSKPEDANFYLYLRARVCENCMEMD
hCD3 (human CD3), sequence (P04234 22-105 partner limits assumed): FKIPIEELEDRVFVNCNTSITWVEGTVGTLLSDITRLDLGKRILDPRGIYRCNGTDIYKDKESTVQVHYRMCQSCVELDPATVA
cyCD3ed, sequence (Q95LI5 22-117 limits assumed): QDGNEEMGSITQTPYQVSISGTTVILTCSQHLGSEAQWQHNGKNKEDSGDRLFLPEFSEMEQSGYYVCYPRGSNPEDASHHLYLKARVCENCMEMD
cyCD3ed, sequence (Q95LI8 22-105 partner limits assumed): as the sequence (P04234 22-105 partner limits assumed) above, with I5V, N15K, I20V, S32T, D33N, I34N, T64A, S74N, V83L counted along it

ka cyCD3ed @25° C. (cyCD3ed): 390000 M⁻¹ s⁻¹ | kd cyCD3ed @25° C. (cyCD3ed): 0.0015 s⁻¹ | ka huCD3ed @25° C. (hCD3 (human CD3); 25° C.): 370000 M⁻¹ s⁻¹ | kd huCD3ed @25° C. (hCD3 (human CD3); 25° C.): 0.002 s⁻¹ | ka huCD3ed @37° C. (hCD3 (human CD3); 37° C.): 437000 M⁻¹ s⁻¹ | kd huCD3ed @37° C. (hCD3 (human CD3); 37° C.): 0.01369 s⁻¹
B1: h2B4: anti-CD3 antibody (antibody, V domains shown)
VH: EVQLVESGGGLVQPGGSLRLSCAASGFTFSDYYMTWVRQAPGKGLEWVAFIRNRARGYTSDHNASVKGRFTISRDNAKNSLYLQMNSLRAEDTAVYYCARDRPSYYVLDYWGQGTTVTVSS
VL: DIVMTQSPDSLAVSLGERATINCTSSQSLFNVRSRKNYLAWYQQKPGQPPKLLISWASTRESGVPDRFSGSGSGTDFTLTISSLQAEDVAVYYCKQSYDLFTFGSGTKLEIK

B2: P5A2: anti-BCMA_H2B4 bispecific, human IgG2dA: anti-BCMA arm P5A2, anti-CD3 arm H2B4 (antibody, V domains shown)
VH: EVQLLESGGGLVQPGGSLRLSCAASGFTFSSYAMNWVRQAPGKGLEWVSAISDSGGSTYYADSVKGRFTISRDNSKNTLYLQMNSLRAEDTAVYYCARYWPMDIWGQGTLVTVSS
VL: EIVLTQSPGTLSLSPGERATLSCRASQSVSSSYLAWYQQKPGQAPRLLMYDASIRATGIPDRFSGSGSGTDFTLTISRLEPEDFAVYYCQQYGSWPLTFGQGTKVEIK
EC50 [1]: 0.946 nM
